# Reference: PMC4390240 (PLoS ONE, 2015)
# “And” between values parts separate entries of the source, which are not always exact repeats. Equal entries are not always repeated.
# Assays:
# [1] = target: the molecule itself; test: differential scanning calorimetry; oxidized dimer, 100 μM (heme unit), scan rate 1°C/min, 50 mM potassium phosphate buffer, pH 7.0; dimer to monomers
# [2] = target: the molecule itself; test: SEC; gel chromatography (Superdex 75) at 4°C in 50 mM potassium phosphate buffer, pH 7.0, after addition of 80% (v/v) ethanol to 1 mM oxidized monomeric protein, lyophilization and resolvation with buffer
protein,measurement,setting,value
"Pseudomonas aeruginosa cytochrome c 551, wild type (natural protein, UniProt P00099 23-104, looked up, heme attached covalently to two Cys residues (heme-linked Cys12 and Cys15); His16 and Met61 coordinated to the heme iron; oxidized, residues printed from Glu1; source: E. coli JCB387, purified (oxidized)) EDPEVLFKNKGCVACHAIDTKMVGPAYKDVAAKFAGQAGAEAELAQRIKNGSQGVWGPIPMPPNAVSDDEAQTLAKWVLSQK",dH of dissociation of the dimer to monomers,[1],~0 kcal/mol
same,stoichiometry N,[2],2 and 3 and 4
